Experimental data: PMC9951875

Target: UspA2 (ubiquitous surface protein A2), displayed on E. coli BL21(DE3) (Moraxella catarrhalis Bc5) (UniProt Q9XD55)
Assay: fluorescence cell-binding titration (eluted FAM-aptamer)

| Sequence | Kd |
| --- | --- |
| ATCCAGAGTGACGCAGCATGGGACGGTGCGGGGGAGGAGGATGAGCGTGGTCGTTGGGTGGCTGCCGCAATGTCGTTGGTGGCCC [FAM-Apt1] | 214 nM |
| GGGCCACCAACGACATTGCGGCAGCCACCCAACGACCACGCTCATCCTCCTCCCCCGCACCGTCCCATGCTGCGTCACTCTGGAT [FAM-Apt1_RC] | 3.4 nM |
